Measurements reported in patent US10533167.
Each block holds one substance with its values, some of them ahead of it.

Key:
Assay in all cases: cell-based or functional assay
[1] = molecular target: FUSN-Cry2olig (N-terminal IDR of FUS fused to mCherry-labeled Cry2olig, Cry2 E490G) (human; Arabidopsis thaliana) (UniProt Q96524)
[2] = molecular target: optoDDX4 (N-terminal IDR of Ddx4 fused to mCherry-labeled Cry2WT) (human; Arabidopsis thaliana) (UniProt Q96524)
[3] = molecular target: optoFUS (N-terminal IDR of FUS fused to mCherry-labeled Cry2 PHR, Cry2WT) (human; Arabidopsis thaliana) (UniProt Q96524)

saturation concentration for light-activated clustering, relative to optoFUS (fold lower than optoFUS) [1]: 5
Substance: FUSN-Cry2olig (N-terminal IDR of FUS fused to mCherry-labeled Cry2olig, Cry2 E490G) (from UniProt Q96524 1-498)

saturation concentration (Csat) for light-activated phase separation, relative to optoFUS (fold lower than optoFUS) [2]: 2
Substance: optoDDX4 (N-terminal IDR of Ddx4 fused to mCherry-labeled Cry2WT) (from UniProt Q96524 1-498)

saturation concentration (Csat) for light-activated phase separation in NIH 3T3 cells [3]: 1.4 µM
Substance: optoFUS (N-terminal IDR of FUS fused to mCherry-labeled Cry2 PHR, Cry2WT) (from UniProt Q96524 1-498)
